{"source": "paper PMC9245472", "target": "T1, ArgR (Thermotoga neapolitana) (UniProt Q9KWZ0)", "T1 sequence": "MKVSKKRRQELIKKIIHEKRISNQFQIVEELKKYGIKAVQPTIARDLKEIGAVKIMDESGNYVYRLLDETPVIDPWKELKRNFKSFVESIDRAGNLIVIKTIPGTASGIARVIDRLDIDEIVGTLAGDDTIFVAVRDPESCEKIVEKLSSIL", "assay": "EMSA", "settings": "10 mM Tris-HCl pH 7.5, 250 mM KCl, 5 mM MgCl2, 2.5 mM CaCl2, 2.5% glycerol, 0.5 mM DTT, 100-fold sonicated herring sperm DNA, 37 C 30 min; 2% agarose in TAE …", "data": [{"sequence": "TGTTACTCTTGAGTTACCAAAACAAAAACAAATGAATTTTTCTTCCAGAGGTGTTATATTTATGCTGTATAATTGTATGTGTTTTCAATCTGAAAGATGGAGGTGTTCAACTTGAAGGTGTCGAAAAAAAGAAGACAGGAACTCATAA (double strand) [argRo (ArgRTn)]", "values": [{"measurement": "binding", "result": "binds"}]}]}
